One block for each binder: values may come before it.
Columns and labels:
[1] = target: T1, 4H341-AA; assay: two-hybrid library CCmax; conditions: mean of both orientations;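 note: natural log of median RNA to DNA barcode read ratio; higher means stronger binding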
T1 chain: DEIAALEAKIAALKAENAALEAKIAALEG

[2] = target: T2, 4H380-AA; assay: two-hybrid library CCmax; conditions: mean of both orientations;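 note: natural log of median RNA to DNA barcode read ratio; higher means stronger binding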
T2 chain: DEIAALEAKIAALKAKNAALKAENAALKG

[3] = target: T3, 4H446-AA; assay: two-hybrid library CCmax; conditions: mean of both orientations;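 note: natural log of median RNA to DNA barcode read ratio; higher means stronger binding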
T3 chain: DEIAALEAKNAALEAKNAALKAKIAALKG

[4] = target: T4, 4H3629-AA; assay: two-hybrid library CCmax; conditions: mean of both orientations;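 note: natural log of median RNA to DNA barcode read ratio; higher means stronger binding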
T4 chain: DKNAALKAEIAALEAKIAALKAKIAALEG

[5] = target: T5, 4H3915-AA; assay: two-hybrid library CCmax;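 note: natural log of median RNA to DNA barcode read ratio; higher means stronger binding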
T5 chain: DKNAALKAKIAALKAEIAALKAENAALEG

[6] = target: T6, 4H3449-AA; assay: two-hybrid library CCmax; conditions: mean of both orientations;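 note: natural log of median RNA to DNA barcode read ratio; higher means stronger binding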
T6 chain: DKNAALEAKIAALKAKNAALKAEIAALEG

[7] = target: T7, 4H3974-AA; assay: two-hybrid library CCmax; conditions: mean of both orientations
T7 chain: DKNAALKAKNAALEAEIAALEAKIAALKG

[8] = target: T8, 4H3094-AA; assay: two-hybrid library CCmax
T8 chain: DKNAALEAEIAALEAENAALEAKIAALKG

[9] = target: T9, 4H3619-AA; assay: two-hybrid library CCmax; conditions: mean of both orientations
T9 chain: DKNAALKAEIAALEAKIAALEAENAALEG

[10] = target: T10, 4H63-AA; assay: two-hybrid library CCmax; conditions: mean of both orientations
T10 chain: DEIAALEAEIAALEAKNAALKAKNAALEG

[11] = target: T11, 4H3777-AA; assay: two-hybrid library CCmax; conditions: mean of both orientations
T11 chain: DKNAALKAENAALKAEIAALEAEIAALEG

[12] = target: T12, 4H324-AA; assay: two-hybrid library CCmax; conditions: mean of both orientations
T12 chain: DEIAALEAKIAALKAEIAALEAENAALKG

[13] = target: T13, 4H432-AA; assay: two-hybrid library CCmax; conditions: mean of both orientations
T13 chain: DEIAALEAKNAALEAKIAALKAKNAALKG

[14] = target: T14, 4H568-bN; assay: two-hybrid library CCNG1
T14 chain: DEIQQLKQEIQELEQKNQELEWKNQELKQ

[15] = target: T15, 4H797-bN; assay: two-hybrid library CCNG1
T15 chain: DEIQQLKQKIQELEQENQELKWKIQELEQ

[16] = target: T16, 4H72-bN; assay: two-hybrid library CCNG1
T16 chain: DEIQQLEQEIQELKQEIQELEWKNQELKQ

[17] = target: T17, 4H883-bN; assay: two-hybrid library CCNG1
T17 chain: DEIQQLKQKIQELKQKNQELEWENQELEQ

[18] = target: T18, 4H717-bN; assay: two-hybrid library CCNG1
T18 chain: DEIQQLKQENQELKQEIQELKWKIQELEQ

[19] = target: T19, 4H607-bN; assay: two-hybrid library CCNG1
T19 chain: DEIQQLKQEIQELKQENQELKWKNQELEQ

[20] = target: T20, 4H454-bN; assay: two-hybrid library CCNG1
T20 chain: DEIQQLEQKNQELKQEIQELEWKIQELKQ

[21] = target: T21, 4H953-bN; assay: two-hybrid library CCNG1
T21 chain: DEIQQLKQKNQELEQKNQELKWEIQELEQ

[22] = target: T22, 4H754-bN; assay: two-hybrid library CCNG1
T22 chain: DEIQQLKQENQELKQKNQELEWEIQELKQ

[23] = target: T23, 4H687-bN; assay: two-hybrid library CCNG1
T23 chain: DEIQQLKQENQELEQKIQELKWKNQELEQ

[24] = target: T24, 4H918-bN; assay: two-hybrid library CCNG1
T24 chain: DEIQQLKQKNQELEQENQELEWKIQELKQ

[25] = target: T25, 4H908-bN; assay: two-hybrid library CCNG1
T25 chain: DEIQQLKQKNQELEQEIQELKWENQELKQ

[26] = target: T26, 4H967-bN; assay: two-hybrid library CCNG1
T26 chain: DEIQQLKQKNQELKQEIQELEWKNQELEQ

[27] = target: T27, 4H492-bH; assay: two-hybrid library CCNG1
T27 chain: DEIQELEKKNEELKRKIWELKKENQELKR

[28] = target: T28, 4H741-bH; assay: two-hybrid library CCNG1
T28 chain: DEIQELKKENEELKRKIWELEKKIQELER

[29] = target: T29, APC8516-AA; assay: two-hybrid library CCmax; conditions: mean of both orientations
T29 chain: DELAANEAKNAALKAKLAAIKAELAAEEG

[30] = target: T30, APC7524-AA; assay: two-hybrid library CCmax; conditions: mean of both orientations
T30 chain: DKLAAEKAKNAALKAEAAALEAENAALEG

[31] = target: T31, APC9291-AA; assay: two-hybrid library CCmax; conditions: mean of both orientations
T31 chain: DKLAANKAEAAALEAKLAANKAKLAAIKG

[32] = target: T32, APC8401-AA; assay: two-hybrid library CCmax; conditions: mean of both orientations
T32 chain: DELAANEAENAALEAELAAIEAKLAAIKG

[33] = target: T33, APC5531-AA; assay: two-hybrid library CCmax; conditions: mean of both orientations
T33 chain: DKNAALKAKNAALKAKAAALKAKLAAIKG

[34] = target: T34, APC6088-AA; assay: two-hybrid library CCmax; conditions: mean of both orientations
T34 chain: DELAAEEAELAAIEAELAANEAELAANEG

[35] = target: T35, APC542-AA; assay: two-hybrid library CCmax; conditions: mean of both orientations
T35 chain: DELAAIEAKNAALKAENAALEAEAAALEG

[36] = target: T36, APC9806-AA; assay: two-hybrid library CCmax; conditions: mean of both orientations
T36 chain: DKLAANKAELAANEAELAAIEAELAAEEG

[37] = target: T37, APC5009-AA; assay: two-hybrid library CCmax
T37 chain: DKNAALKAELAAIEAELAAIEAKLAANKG

[38] = target: T38, APC9141-AA; assay: two-hybrid library CCmax; conditions: mean of both orientations
T38 chain: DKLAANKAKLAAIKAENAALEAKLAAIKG

[39] = target: T39, APC9182-AA; assay: two-hybrid library CCmax; conditions: mean of both orientations
T39 chain: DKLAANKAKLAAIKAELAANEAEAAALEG

- interaction score [1]: 1.64
- interaction score [2]: 1.51
- interaction score [3]: -0.811
- interaction score [4]: -0.24
- interaction score [5]: -0.623
- interaction score [6]: 2.52
- interaction score [7]: -0.861
- interaction score [8]: -0.802
- interaction score [9]: -1.6
- interaction score [10]: -0.753
- interaction score [11]: -0.696
- interaction score [12]: -0.623
- interaction score [13]: 0.441
B1: 4H3094-AA (peptide)
chain: DKNAALEAEIAALEAENAALEAKIAALKG

- interaction score [29]: -1.31
- interaction score [30]: -1.47
- interaction score [31]: -1.51
- interaction score [32]: -1.26
- interaction score [33]: -0.726
- interaction score [34]: -1.37
- interaction score [35]: -1.44
- interaction score [36]: -1.58
- interaction score [37]: -1.19
- interaction score [38]: -1.42
- interaction score [39]: -1.29
B4: APC5009-AA (peptide)
chain: DKNAALKAELAAIEAELAAIEAKLAANKG

Further lines, the binder ahead of its results:

B2: 4H454-bN (peptide)
chain: DEIQQLEQKNQELKQEIQELEWKIQELKQ
- interaction score [14]: 0.196
- interaction score [15]: -0.833
- interaction score [16]: 0.494
- interaction score [17]: -0.143
- interaction score [18]: 0.0875
- interaction score [19]: 0.145
- interaction score [20]: -0.79
- interaction score [21]: -1.26
- interaction score [22]: -0.587
- interaction score [23]: 1.02
- interaction score [24]: -0.834
- interaction score [25]: 0.201
- interaction score [26]: -0.354

B3: 4H492-bH (peptide)
chain: DEIQELEKKNEELKRKIWELKKENQELKR
- interaction score [27]: 0.6
- interaction score [28]: -0.317
